The results in this text go back to patent US8273357B2, “Antigen-carbohydrate conjugates” (Massachusetts Institute of Technology, priority 2004, dated 2012).

“Also recorded” adds a separate entry of the source.

The test system of experiment [1] is OTII (CD4+) T cells in unfractionated splenocytes. Put plainly: Antigen presentation assay, unfractionated OTII splenocytes, [3H]thymidine T cell proliferation. Format: cell-based, mouse. Here is the method: FIG. 2B is a graph showing that oligosaccharide modification of OVA elicits stronger presentation to OTII T cells than unmodified OVA. Unfractionated OTII splenocytes (3×10^5/well) were incubated with graded doses of OVA or oligosaccharide-modified OVA for eighty-four hours with [^3H]thymidine (1 μCi) added for the last 12 hours. Thereafter [^3H]thymidine incorporation levels were measured and plotted. FIG. 2C is a graph showing that observed enhancements in antigen presentation of (OVA)-3-1 to T cells is carbohydrate dependent. Splenocytes were incubated with antigen as in (B)±(BSA)-3-1 (10 μg mL^−1). In cases where (OVA)-3-1 was added to OVA wells to assess the possibility of direct activation of T cells (see text), (OVA)-3-1 was present at 50 ng mL^−1; incubations were performed for seventy-two hours with [^3H]thymidine (1 μCi) added for the last 12 hours. FIG. 2D is a graph showing that the receptor mediated uptake of (OVA)-3-1 has a different binding profile than that observed for DC-SIGN. Unfractionated splenocytes were incubated with OVA or (OVA)-3-1±mBSA or Lewis^x-BSA (each at 100 μg mL^−1). Incubations were performed for seventy-two hours with [^3H]thymidine (1 μCi) added for the last twelve hours. All values reported are the mean of triplicate measurements.
The ability of these conjugates to enhance antigen uptake by dendritic cells was assessed in comparison to unmodified OVA by incubating graded doses of conjugate and OVA with unfractionated splenocytes (containing T cells, B cells, dendritic cells, macrophages) isolated from OTII (CD4^+) transgenic mice. The ability of dendritic cells to present antigenic peptides derived from targeted proteins was measured as a function of T cell proliferation in response to those presented peptides. T cell proliferation is quantified by [^3H]thymidine incorporation during cellular division.
Pooled inguinal lymph nodes were dissociated in 10% Fetal Bovine Serum RPMI (supplemented with 2 mM L-glutamine) and either mechanically dissociated between two glass slides or, to improve the overall cell yield, incubated in the presence of collagenase (Boehringer) and EDTA for 25 minutes at 37° C./5% CO2 to dissociate DC-T cell clusters. For antigen presentation assays with whole splenocytes, isolated spleens were injected with collagenase/EDTA, gently teased apart and incubated as described above. Splenocytes were cultured in 96-well round-bottom plates at a density of 3×10^5 cells/0.2 mL. In antigen presentation assays utilizing purified dendritic cells and T cells, dendritic cells were isolated from the spleens of C57BL/6 mice following collagenase/EDTA treatment by labeling the dendritic cells with commercially available magnetic microbeads linked to an anti-CD11c^+ antibody (Miltenyi Biotec, Bergisch Gladbach, Germany) (according to the Miltenyi Biotec protocol) and separating labeled Dendritic cells from non-dendritic cells by application of a magnetic field. Similarly, purified […] T cells were obtained from spleens of OTII transgenic mice using magnetic beads Dynal (Oslo, Norway). Purified dendritic cells and T cells were seeded onto 96-well plates round-bottom Plates at a 1:2 DC:T cell ratio unless stated otherwise in the Figures.

In experiment [2] the test system is CD8α+ and CD8α− dendritic cells. Put plainly: Antigen presentation by sorted CD8α+ and CD8α− dendritic cell subsets to OTII T cells. In kind it is cell-based, mouse. Conditions: for presentation to OTII T cells by individual dendritic cell subsets: CD8α+ and CD8α− subsets. Here is the method:
FIG. 5 is a graph showing that both dendritic cell subsets, i.e., cells that are CD8α+ and CD8α^−, can present (OVA)-301. CD11c+ dendritic cells were stained with antibody against CD8α and I-A^b MHC class H molecules and sorted into their respective CD8α+ and CD8α^− populations. 2×10^4 cells of each subtype were incubated with 1×10^5 purified OTII T cells with graded doses of OVA or (OVA)-3-1 for eighty-four hours with [^3H]thymidine (1 μCi) added for the last twelve hours. All data points were performed in triplicate.
In the mouse, there are three subsets of dendritic cells, which are defined by their expression of the cellular antigens CD8 and CD4, namely CD8 α^+CD4^−, CD8α^−CD4^+, and CD8αCD4^14,15. Many functional differences among these subsets have been described and it has been argued that the CD8α^+ subset may be solely responsible for maintaining peripheral tolerance while the CD8α^− subset induces immunity to captured antigen^14 To determine if the high-mannose receptor was restricted to a particular subset, a fluorescence cell sorter was used to separate dendritic cells into their respective CD8α^+ and CD8α^− subsets. Each subset was then tested for its ability to present OVA and (OVA)-3-1 to OTII T cells (FIG. 5). […] Thus, both dendritic cell subsets expressed a receptor capable of binding nonasaccharide 3-1 and mediating uptake of antigens modified with this oligosaccharide.
To obtain sufficient numbers of dendritic cells for antigen presentation and cytokine analysis, C57BL/6 mice were injected with a Flt3-ligand secreting tumor cell line to promote the expansion of dendritic cells. Fourteen days after this administration the mice were sacrificed and the spleens were isolated. Dendritic cells were purified from the spleens by positive selection with anti-CD11c microbeads as described above and stained with FITC-conjugated anti-1-A^b and cychrome-conjugated anti-CD8α. Cells were then sorted on a fluorescence-activated cell sorter, a MoFlo, (Dakocytomaton, Glostrup Denmark) into CD8α^+I-A^b+ and CD8α^−I-A^b+ populations. The purity of each subset was 80% with approximately 6% cross-contamination. Dendritic cells from each subset were used in antigen proliferation assays as described above (section 3.5.5).

The next experiment has as its system IL-4. Put plainly: IL-4 ELISA during in vitro peptide restimulation of T cells from immunized mice. Format: in vivo, mouse. The conditions noted are these: 24 h; lower limit of detection approximately 0.3 ng mL^−1. The method, then: FIGS. 8A and 8B are a series of dot plots (FIG. 8A) and a graph (FIG. 8B) showing that the oligosaccharide-mediated targeting of steady state dendritic cells leads to T cell tolerance. […] 2×10^7 OTII splenocytes were adoptively transferred into B6.Ly5.2/Cr recipients and then immunized by subcutaneous injection with PBS, OVA (200 ng), (OVA)-3-1 (200 ng), (OVA)-3-1 (200 ng)+mBSA (50 μg) or OVA peptide (100 μg) in Incomplete Freund's Adjuvant. At 8 days after these initial immunizations, mice received an antigenic rechallenge of OVA peptide (100 μg) in Complete Freund's Adjuvant. On day ten mice were sacrificed and cells were isolated from the draining lymph node, total T cells were purified by negative selection and the number of OTII T cells were counted by FACS as described for FIG. 6. […] Purified T cells from each experimental group were seeded at 3×10^5 cells/well with purified […] dendritic cells (9×10^4/well) and were incubated for twenty-four hours±OVA peptide (100 μg mL^−1) with [^3H]thymidine (1 μCi) added for the last ten hours. […]
75-150 μL aliquots of supernatant were sampled from antigen presentation assays at 24, 48, and 72 hours. […] 25 μL of each supernatant were diluted 1:1 with PBS/1% BSA and analyzed in triplicate for IFN-γ, IL-10, and IL-4 using DuoSet ELISA reagents from R&D Systems. […]

Turning to “mBSA: BSA modified with approximately 25 mannose residues per protein molecule [reference compound]”, the “inhibition of uptake and presentation of (OVA)-3-1 to OTII T cells” value in experiment [1] (OTII splenocytes, mBSA or Lewis^x-BSA each at 100 μg mL^−1) was “Neither mBSA nor Lewis^x-BSA significantly impair; also recorded: did not significantly effect presentation”.

B1: (OVA)-3-1: ovalbumin modified via SMCC with nonasaccharide 3-1, average of three saccharides per OVA (conjugate)
chain: GSIGAASMEFCFDVFKELKVHHANENIFYCPIAIMSALAMVYLGAKDSTRTQINKVVRFDKLPGFGDSIEAQCGTSVNVHSSLRDILNQITKPNDVYSFSLASRLYAEERYPILPEYLQCVKELYRGGLEPINFQTAADQARELINSWVESQTNGIIRNVLQPSSVDSQTAMVLVNAIVFKGLWEKAFKDEDTQAMPFRVTEQESKPVQMMYQIGLFRVASMASEKMKILELPFASGTMSMLVLLPDEVSGLEQLESIINFEKLTEWTSSNVMEERKIKVYLPRMKMEEKYNLTSVLMAMGITDVFSSSANLSGISSAESLKISQAVHAAHAEINEAGREVVGSAEAGVDAASVSEEFRADHPFLFCIKHIATNAVLFFGRCVSP
On to B1, for which the results for the “presentation to OTII T cells by individual dendritic cell subsets” value in experiment [2] and in experiment [2] (listed as (OVA)-301) were “presented by each subset” and “can present”, respectively. The “efficiency of presentation by CD8α+ subset relative to CD8α− subset” value in experiment [2] (sorted subsets, OTII T cells) is listed as “approximately 2 fold”. Also, the “IL-4 produced during peptide stimulation in vitro” value with IL-4 is reported as “not detected”. Moreover, the “T cell response curve of OVA plus (OVA)-3-1 versus OVA alone (direct activation of T cells)” value in experiment [1] (0.05 μg mL^−1 (OVA)-3-1 added to graded doses of OVA) was “identical”. Besides, the “enhancement of antigen uptake and presentation to T cells (T cell proliferation) compared to unmodified OVA” value in experiment [1] (OTII splenocytes, graded doses) was “greatest enhancement”.

B2: ovalbumin (protein, UniProt P01012 2-386, looked up)
Ovalbumin: B1 chain
notes: model antigen, unmodified
Consider B2, for which the “presentation to OTII T cells by individual dendritic cell subsets” value in experiment [2] is “only weakly presented”. Moreover, the “IL-4 produced during peptide stimulation in vitro” value in the experiment with IL-4 is “no IL-4”.
